# Test results: US20070072177A1
# Target: rabies virus glycoprotein (G protein) of strain CVS-11 (rabies virus strain CVS-11) (UniProt O92284)
# Experiment: cell-based or functional assay
# Chain of rabies virus glycoprotein (G protein) of strain CVS-11 (rabies virus strain CVS-11) (O92284 20-524 limits assumed): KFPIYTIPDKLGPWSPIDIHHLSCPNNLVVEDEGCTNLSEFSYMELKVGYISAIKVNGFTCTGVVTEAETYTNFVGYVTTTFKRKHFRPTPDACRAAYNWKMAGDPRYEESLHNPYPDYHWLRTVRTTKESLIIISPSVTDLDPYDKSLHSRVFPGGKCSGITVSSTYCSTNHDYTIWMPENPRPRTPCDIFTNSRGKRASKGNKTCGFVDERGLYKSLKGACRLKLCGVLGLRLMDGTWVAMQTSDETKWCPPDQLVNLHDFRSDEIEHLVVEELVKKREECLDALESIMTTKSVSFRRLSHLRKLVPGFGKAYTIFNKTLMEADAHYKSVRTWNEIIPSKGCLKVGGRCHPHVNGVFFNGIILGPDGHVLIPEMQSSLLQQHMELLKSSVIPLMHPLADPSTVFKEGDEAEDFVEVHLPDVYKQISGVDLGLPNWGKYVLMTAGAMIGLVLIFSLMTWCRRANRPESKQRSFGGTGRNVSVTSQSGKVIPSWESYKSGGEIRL
row,Binder,Neutralizing potency (modified RFFIT)
1,CR04-108 (antibody) VH: AMAEVQLVQSGGGLVQPGGSLRLSCAASGFTFSSYGMHWVRQAPGKGLEWVAVILYDGSDKFYADSVKGRFTISRDNSKDTLYLQMNSLRAEDTAVYYCAKFMIVADDAFDIWGQGTMVTVSSGTGGSGGTGSGTGGSTDIQLTQSPSSLSASVGDRVTITCRASQGISSHLVWYQQKPGKAPKSLIYAASSLQSGVPSRFSGSESATDFTLTISSLQPEDFATYYCQQYYSYPITFGQGTRLEIKRAAA VL: AMAEVQLVQSGGGLVQPGGSLRLSCAASGFTFSSYGMHWVRQAPGKGLEWVAVILYDGSDKFYADSVKGRFTISRDNSKDTLYLQMNSLRAEDTAVYYCAKFMIVADDAFDIWGQGTMVTVSSGTGGSGGTGSGTGGSTDIQLTQSPSSLSASVGDRVTITCRASQGISSHLVWYQQKPGKAPKSLIYAASSLQSGVPSRFSGSESATDFTLTISSLQPEDFATYYCQQYYSYPITFGQGTRLEIKRAAA,4870 IU/mg
2,CR04-120 (antibody) VH: AMAEVQLVQSGGGLVQPGRSLRLSCAASGFTFSTYGMHWVRQAPGKGLEWVATISYDGSIKDYADSEKGRFTISRDNSKNTLYLQMNSLRAEDTAVYYCAKGGKTGEFDYWGQGTLVTVSSGTGGSGGTGSGTGGSTDIQLTQSPSTLSASVGDRVTITCRASQGINSYLAWYQQEPGKAPKLLIYAASTLQSGVPSRFSGSGSGTEFTLTISSLQPEDFATYYCQQLNSYPFTFGPGTKVDIKRAAA VL: AMAEVQLVQSGGGLVQPGRSLRLSCAASGFTFSTYGMHWVRQAPGKGLEWVATISYDGSIKDYADSEKGRFTISRDNSKNTLYLQMNSLRAEDTAVYYCAKGGKTGEFDYWGQGTLVTVSSGTGGSGGTGSGTGGSTDIQLTQSPSTLSASVGDRVTITCRASQGINSYLAWYQQEPGKAPKLLIYAASTLQSGVPSRFSGSGSGTEFTLTISSLQPEDFATYYCQQLNSYPFTFGPGTKVDIKRAAA,4940 IU/mg
3,CR04-140 (antibody) VH: AMAQMQLVQSGGGVVQPGRSLRLSCAASGFTFSSYGMHWVRQAPGKGLEWVAVILYDGSNKYYADSVKGRFTISRDNSKNALYLQMNSLRAEDTAVYYCAKVTNPGDAFDIWGQGTMVTVSSGTGGSGGTGSGTGGSTDIQMTQSPSSLSASVGDRVTITCRASQGISSALAWYQQKPGKAPKLLIYDASSLESGVPSRFSGSGSGTDFTLTISSLQPEDFATYYCQQFNSYPLTFGGGTKVEIKRAAA VL: AMAQMQLVQSGGGVVQPGRSLRLSCAASGFTFSSYGMHWVRQAPGKGLEWVAVILYDGSNKYYADSVKGRFTISRDNSKNALYLQMNSLRAEDTAVYYCAKVTNPGDAFDIWGQGTMVTVSSGTGGSGGTGSGTGGSTDIQMTQSPSSLSASVGDRVTITCRASQGISSALAWYQQKPGKAPKLLIYDASSLESGVPSRFSGSGSGTDFTLTISSLQPEDFATYYCQQFNSYPLTFGGGTKVEIKRAAA,478 IU/mg
4,CR04-144 (antibody) VH: AMAQVQLQELGGGVVQPGRSLRLSCAASGFTFGSYGMHWVRQAPGKGLEWVATISYDGSIKDYADSEKGRFTISRDNSKNTLYLQMNSLRAEDTAVYYCAKGGKTGEFDYWGQGTLVTVSSGTGGSGGTGSGTGGSTDIQLTQSPSSLSASVGDRVTITCRASQGISSYLAWYQQKPGKGPKLLIYAASTLQSGVPSRFSGSGSGTDFSLTISSLQPEDLATYYCQQYDSYPLTFGGGTKVEIKRAAA VL: AMAQVQLQELGGGVVQPGRSLRLSCAASGFTFGSYGMHWVRQAPGKGLEWVATISYDGSIKDYADSEKGRFTISRDNSKNTLYLQMNSLRAEDTAVYYCAKGGKTGEFDYWGQGTLVTVSSGTGGSGGTGSGTGGSTDIQLTQSPSSLSASVGDRVTITCRASQGISSYLAWYQQKPGKGPKLLIYAASTLQSGVPSRFSGSGSGTDFSLTISSLQPEDLATYYCQQYDSYPLTFGGGTKVEIKRAAA,6250 IU/mg
